Legend:
[1] = target: Recombinant human TβRI-ED (residues 1-101) (human); assay: ELISA
[2] = target: Recombinant human TβRII-ED (residues 1-137) (human); assay: ELISA
Chain of Recombinant human TβRII-ED (residues 1-137) (human) (P37173 whole entry, the tested form may be a part): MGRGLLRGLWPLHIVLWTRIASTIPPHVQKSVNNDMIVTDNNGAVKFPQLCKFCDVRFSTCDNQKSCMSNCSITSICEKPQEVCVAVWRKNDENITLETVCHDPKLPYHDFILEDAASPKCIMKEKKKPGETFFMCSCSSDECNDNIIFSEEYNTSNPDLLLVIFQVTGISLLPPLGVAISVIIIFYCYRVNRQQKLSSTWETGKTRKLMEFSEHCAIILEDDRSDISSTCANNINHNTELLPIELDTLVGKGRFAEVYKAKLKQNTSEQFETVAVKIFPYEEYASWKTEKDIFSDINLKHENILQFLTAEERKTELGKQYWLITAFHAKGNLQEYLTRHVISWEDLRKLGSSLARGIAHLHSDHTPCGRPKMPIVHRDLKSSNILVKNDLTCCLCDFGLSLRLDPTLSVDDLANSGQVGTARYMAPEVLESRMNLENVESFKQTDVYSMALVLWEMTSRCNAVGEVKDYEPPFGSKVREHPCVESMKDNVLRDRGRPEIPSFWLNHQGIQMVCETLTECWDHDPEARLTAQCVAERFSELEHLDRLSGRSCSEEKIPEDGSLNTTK

LTGKNFPMFHRN [phage clone 1 (M13 phage displaying … on the N-terminus of the PIII protein)] was tested, and the Kd [1] was 0.0001 µM.

LTGKNFPMFHRN [Pep1 (synthetic peptide …)] showed an IC50 [1] of 110 µM, a Kd [1] of 10 µM and an IC50 [2] of 156 µM. For the same binder, the Kd [2] was 10 µM.

In the case of MHRMPSFLPTTL [Pep2 (synthetic peptide …)], the IC50 [1] is reported as 256 µM, the Kd [1] is reported as 10 µM and the IC50 [2] is reported as 274 µM. It also gave a Kd [2] of 10 µM.

MHRMPSFLPTTL [phage clone 2 (M13 phage displaying … on the N-terminus of the PIII protein)] gave a Kd [1] of 0.0001 µM.

Source: article PMC3064480
